Measured values published in patent publication CN108218984A (ZHUHAI TRINOMAB BIOTECHNOLOGY CO LTD; GUANGZHOU TAINUODI …, dated 2018).

Target: 破伤风标准毒素 (破伤风毒素蛋白) (Clostridium tetani, UniProt P04958 2-1315)
Sequence (P04958 2-457 limits assumed, chain 1 of 2): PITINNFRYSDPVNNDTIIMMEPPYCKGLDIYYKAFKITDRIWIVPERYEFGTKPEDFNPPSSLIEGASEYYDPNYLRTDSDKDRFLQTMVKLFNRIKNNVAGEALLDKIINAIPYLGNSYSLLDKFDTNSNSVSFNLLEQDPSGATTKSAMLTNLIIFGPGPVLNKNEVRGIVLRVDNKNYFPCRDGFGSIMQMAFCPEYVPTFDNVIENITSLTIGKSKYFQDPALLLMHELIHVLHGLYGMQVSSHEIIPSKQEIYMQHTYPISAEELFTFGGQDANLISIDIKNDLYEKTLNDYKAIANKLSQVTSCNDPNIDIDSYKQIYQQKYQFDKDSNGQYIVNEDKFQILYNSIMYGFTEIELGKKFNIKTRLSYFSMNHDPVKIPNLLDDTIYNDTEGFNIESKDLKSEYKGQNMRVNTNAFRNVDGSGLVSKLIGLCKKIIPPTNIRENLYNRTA
Sequence (P04958 458-1315 limits assumed, chain 2 of 2): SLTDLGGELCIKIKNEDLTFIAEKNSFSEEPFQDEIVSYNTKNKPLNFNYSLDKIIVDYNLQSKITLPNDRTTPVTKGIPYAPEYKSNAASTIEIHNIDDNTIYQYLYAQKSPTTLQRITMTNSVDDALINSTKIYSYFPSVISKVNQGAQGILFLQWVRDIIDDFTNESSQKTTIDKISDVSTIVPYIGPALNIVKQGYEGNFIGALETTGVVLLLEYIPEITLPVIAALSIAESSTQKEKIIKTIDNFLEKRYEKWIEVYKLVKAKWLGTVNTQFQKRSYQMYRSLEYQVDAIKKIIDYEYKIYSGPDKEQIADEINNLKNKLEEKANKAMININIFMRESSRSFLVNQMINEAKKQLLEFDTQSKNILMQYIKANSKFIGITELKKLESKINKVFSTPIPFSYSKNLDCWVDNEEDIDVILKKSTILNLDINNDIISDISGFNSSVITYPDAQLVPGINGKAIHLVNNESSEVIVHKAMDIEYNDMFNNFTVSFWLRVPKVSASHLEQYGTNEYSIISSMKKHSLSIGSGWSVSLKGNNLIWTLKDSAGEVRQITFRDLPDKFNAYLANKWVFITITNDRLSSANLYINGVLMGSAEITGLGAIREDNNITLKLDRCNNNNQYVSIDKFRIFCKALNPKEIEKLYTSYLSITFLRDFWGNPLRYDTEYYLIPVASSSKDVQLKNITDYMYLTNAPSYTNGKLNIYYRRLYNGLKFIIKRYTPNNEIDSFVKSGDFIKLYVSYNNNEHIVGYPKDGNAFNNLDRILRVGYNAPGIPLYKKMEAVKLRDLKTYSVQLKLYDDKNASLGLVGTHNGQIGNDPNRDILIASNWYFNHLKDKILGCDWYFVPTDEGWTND

B1: TRN0011抗体 (全人源抗破伤风毒素中和抗体) (antibody, V domains shown)
VH: QVQLQESGAGLVKPSETLSLTCGVAGGPFTGSYLSWIRQPPGKGLEWIGEVSQSGSTSYNPSLKSRVTISVDTSKSQFSLKLSSVTAADTAVYYCARLTKHYINSAYWGQGTLVTVSS
VL: DIQMTQSPSILSASVGDRVTITCRASQIIGSWLAWYQQKPGKAPTLVIYKASRLDSGVPSRFSGTESGTEFTLTISSLQPDDFATYYCQQYNSYPYTFGQGTKLEIK
Kd: 0.905 nM | koff: 3.87e-05 s⁻¹ | kon: 42700 M⁻¹ s⁻¹
